Consider 4 molecules from patent US20230109318A1 (OBLIQUE THERAPEUTICS, published 2023).

Numbering of substitutions follows the chain as printed. No end group written: not given here.

Assay [1] has as its target T1, "wild-type" (WT) peptide having the amino acid sequence CGAGGVGKSALTI (SEQ ID NO:160).
T1 peptide: CGAGGVGKSALTI
Description: further ELISA on WT peptide; weaker than on the mutant peptide. Background: In an ELISA, binding on a coated surface is turned into a signal by an enzyme label.

The target of assay [2] is T2, isolated G13D Ab1 peptide of SEQ ID NO:5 (human).
T2 peptide: CGAGDVGKSALTI-NH2
Nature of the assay: ELISA, hybridoma supernatant on dilutions of the peptide, absorbance at 405 nm.

The target in assay [3] is T2, isolated G13D Ab1 peptide of SEQ ID NO:5. Description: further ELISA, mutant peptide compared with WT peptide.

B1: 4B8-1 (antibody, V domains shown)
VH: EVQLQQSGPERVKPGASVKMSCKASGYTFTDYSMHWVKQSHGKSLEWIGYINPNNGGASYNQKFKGKATLTVNKSSSTAYMELRSLTSEDSAVYYCARGDYYGGGYWGQGTTLTVSS
VL: ENVLTQSPAIMSASPGEKVTMTCSASSSVSYMHWYQQKSSTSPKLWIYDTSKVASGVPGRFSGSGSGNSYSLTINSMEAEDVATYYCFQGSGYPLTFGAGTKLELK
notes: Mouse monoclonal IgG from a hybridoma, tested as hybridoma supernatant
Regarding B1, the binding result in assay [1] and in assay [2] was “binds” throughout.

B2: 7D11-1 (antibody, V domains shown)
VH: QVQLQQPGAEFVKPGASVKLSCKASGYTFTRYWMHWVKQRPGRGLEWIGRIDPNSGGTTFNEKFKSKATLTVDKPSSTAYMQLSSLTSEDSAVYYCAREVGGYWGQGTTLTVSS
VL: B1 VL with S26G, S30D, V53L, N75S, K106R
notes: as for B1
For B2, the binding result in assay [1] and in assay [2] was “binds” each time.

B3: 11D6-1 (antibody, V domains shown)
VH: EVQLQQSGPELVKPGASVKMSCKTSGYTFTDYTMHWVKQSHGKSLEWIGYINPNNGGTYYNQRFKGKATLTVSRSSSTAYIELRSLTSDDSAVYYCARGDYYGGGYWGQGTTLRVSS
VL: B1 VL with S26G, V53L, N75S, A99D
notes: as for B1
Regarding B3, the binding result in assay [1] and in assay [3] was “binds” each time.

B4: 7G2-1 (antibody, V domains shown)
VH: QVTLKESGPGILQPSQTLSLTCSFSGFSLSTFGMGVGWIRQPSGKGLEWLAHIWWDDDKNYNPALKSRLTISKDTSKNQVFFKIANVDTADTATYYCVQLSTMGDGGYWGQGTLVTVSA
VL: NIVMTQSPKSMSMSVGERVTLSCKASENVGTYVSWYQQKPGQSPKLLIYGASNRYTGVPDRFTGSGSGTDFILTISSVQAEDLADYHCGQSYNYPFTFGSGTKLEIK
notes: as for B1
Regarding B4, in assay [2], the binding result is on record as “binds”.
